Assay results from patent US20240124885A1 (MENDEL BIOTECHNOLOGY, published 2024).
One block for each binder: values may come before it.

Experiments:
AtBBX32::GFP [1] = biological target: T1, AtBBX32::GFP (Arabidopsis thaliana, UniProt Q9LJB7 1-225); experiment: Luminex co-IP from soybean cotyledon protoplast extract, both directions
T1 construct: Fusion protein transiently expressed in soybean cotyledon protoplasts; also called AtBBX32 fused to GFP; not shown: GFP fusion partner
T1 sequence: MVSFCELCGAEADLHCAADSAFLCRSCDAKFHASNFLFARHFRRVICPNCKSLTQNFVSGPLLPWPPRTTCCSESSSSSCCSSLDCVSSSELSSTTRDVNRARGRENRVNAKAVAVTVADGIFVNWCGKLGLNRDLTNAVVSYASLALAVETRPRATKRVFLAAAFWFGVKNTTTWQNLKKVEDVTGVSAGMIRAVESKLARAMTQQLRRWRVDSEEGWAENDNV
Experimental: (§1) Capture antibodies for GFP (MBL International, D153-3),Myc (Bethyl Laboratories cat #A190-104A)and FLAG (Bethyl Laboratories, A190-101A) were covalently coupled to carboxylated fluorescent microspheres (Luminex) according to the manufacturer's protocol Luminex two-step Carbodimide coupling protocol was modified as follows: 3.5×10⁶ beads were conjugated to […] of antibody and resuspended in coupling buffer containing 100 mM MES pH 6. Biotinylated antibodies for GFP (Abcam, ab6658), Myc (Bethyl Laboratories cat #A190-104B)and FLAG (Bethyl laboratories, A190-101B) were used for detection of interacting proteins in the miniaturized sandwich immunoassay. NeutrAvidin R-phycoerythrin was used as the reporter assay reagent (Invitrogen, A2660).
To assess the potential interaction between AtBBX32 and GmBBX39, two experiments were conducted consisting of a total of three repetitions (exp. 1, n=1; exp. 2, n=2). BBX32::GFP was co-expressed with FLAG::GmBBX39 in soybean cotyledon protoplasts. Expression analyses on one replicate of each treatment using either Luminex (BBX32::GFP) or Western blot (FLAG::BBX39) detection confirmed that each protein was expressed at detectable levels (data not shown). When co-expressed in protoplasts, BBX32::GFP and FLAG::BBX39 co-precipitated with either anti-GFP or anti-FLAG beads (FIG. 17).

AtBBX32::GFP [2] = biological target: T1, AtBBX32::GFP; experiment: Luminex co-IP, anti-GFP and anti-Myc capture
Experimental: Luminex co-IP assays were performed on extracts from soybean cotyledon protoplasts co-expressing AtBBX32 fused to GFP and GmBBX39 fused to the Myc epitope. A: IP with anti-GFP, detection with anti-Myc. B: IP with anti-Myc, detection with anti-GFP. MFI stands for Median Fluorescence Intensity. * denotes p<0.001.
as §1

[3] = biological target: Flag::GmBBX62 (Glycine max); experiment: Luminex co-IP from soybean protoplast extract, anti-GFP capture, anti-FLAG detection
[4] = biological target: Flag::GmBBX62 (Glycine max); experiment: reciprocal Luminex co-IP from soybean protoplast extract, anti-FLAG capture, anti-GFP detection

binding result (AtBBX32::GFP [1]): binds
B1: FLAG::GmBBX39 (other)
chain: MKIQCDVCNKHEASVFCTADEAALCDGCDHRVHHANKLASKHQRFSLLRPSPKQHPLCDICQERRAFTFCQQDRAILCKECDVSIHSANEHTLKHDRFLLTGVKLSASAMLRSSETTSDSNSNPSLLNFSHQTTLLPPSSTTTTTTSNNNNNKVAVEGTGSTSASSISEYLIETLPGWQVEDFLDSYSVPFGFCKNDEVLPRFDGEMEGHLSSFSTENMGIWVPQAPPTLMCSSQMDRVIVHGETNIKGSSRSRLKDDNFTVPQISPPSNSKRARFLW
notes: Co-expressed with BBX32::GFP in soybean cotyledon protoplasts; also called FLAG::BBX39; not shown: FLAG tag

binding result (AtBBX32::GFP [2]): binds
B2: GmBBX39 fused to the Myc epitope (other, not shown: small tags and cut ends)
chain: MKIQCDVCNKHEASVFCTADEAALCDGCDHRVHHANKLASKHQRFSLLRPSPKQHPLCDICQERRAFTFCQQDRAILCKECDVSIHSANEHTLKHDRFLLTGVKLSASAMLRSSETTSDSNSNPSLLNFSHQTTLLPPSSTTTTTTSNNNNNKVAVEGTGSTSASSISEYLIETLPGWQVEDFLDSYSVPFGFCKNDEVLPRFDGEMEGHLSSFSTENMGIWVPQAPPTLMCSSQMDRVIVHGETNIKGSSRSRLKDDNFTVPQISPPSNSKRARFLW

fold increase of median fluorescence intensity (MFI) over controls [3]: 6 fold | fold increase of fluorescence intensity over controls [4]: 5 fold
B3: AtBBX32::GFP (protein, not shown: large carriers)
chain: MVSFCELCGAEADLHCAADSAFLCRSCDAKFHASNFLFARHFRRVICPNCKSLTQNFVSGPLLPWPPRTTCCSESSSSSCCSSLDCVSSSELSSTTRDVNRARGRENRVNAKAVAVTVADGIFVNWCGKLGLNRDLTNAVVSYASLALAVETRPRATKRVFLAAAFWFGVKNTTTWQNLKKVEDVTGVSAGMIRAVESKLARAMTQQLRRWRVDSEEGWAENDNV
